Experimental data reported in article PMC5316958, “A combination of mutational and computational scanning guides the design of an artificial ligand-binding controlled lipase” (Scientific Reports, 2017).
“And” between values parts separate entries of the source, which are not always exact repeats. Equal values may be shown once.

B1: CitAP-BsLA (enzyme)
chain: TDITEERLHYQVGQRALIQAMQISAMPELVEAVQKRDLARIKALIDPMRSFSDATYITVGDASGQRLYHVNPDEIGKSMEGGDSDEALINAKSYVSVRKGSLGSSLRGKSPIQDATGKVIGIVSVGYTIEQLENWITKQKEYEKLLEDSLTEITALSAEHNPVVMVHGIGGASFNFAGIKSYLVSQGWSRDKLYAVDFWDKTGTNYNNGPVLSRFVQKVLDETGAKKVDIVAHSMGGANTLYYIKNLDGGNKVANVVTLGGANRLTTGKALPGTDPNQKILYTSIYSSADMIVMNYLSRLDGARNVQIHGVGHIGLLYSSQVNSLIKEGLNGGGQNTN

What was measured:
[1] = target: T1, Bacillus subtilis lipase A (BsLA) (Bacillus subtilis, UniProt P37957); assay: hydrolysis of p-NPB by purified enzyme, p-nitrophenolate release at […] nm (specific activity); format: biochemical
T1 construct: gene estA; purified wild-type BsLA

[2] = target: the molecule itself; assay: AUC; sedimentation velocity, CitAP-BsLA 0.5 mg/ml, 10 mM glycine buffer pH 10, 10 mM NaCl, with or without 1 mM sodium citrate, 25 °C, 40 krpm; c(s) with Bayesian prior, discrete species of known mass; monomer, dimer and higher oligomers
[3] = target: the molecule itself; assay: SAXS

Molecule | hydrolysis of p-NPB by purified enzyme, p-nitrophenolate release at 410 nm (spec) [1] | stoichiometry N [2] | Kd [3]
CCCC(=O)Oc1ccc([N+](=O)[O-])cc1 [p-nitrophenylbutyrate] | 181 ± 3 U/mg |  | 
B1 |  | 2 | 24 µM and 29 µM
